Reference: paper PMC12323189

Assays:
[1] = CHX (20 µM) chase, PD-L1 half-life; settings: glycan changed form; control: 231 cells
[2] = flow cytometry and immunofluorescence; settings: glycan changed form; control: 231 cells
[3] = western blot of extracellular vesicles; settings: glycan changed form; control: 231-EVs
[4] = western blot, flow cytometry, confocal microscopy; settings: glycan changed form; control: MCF7 cells

PD-L1: 231-MGAT3 (MGAT3 overexpression)
degradation_or_half_life [1]: decreases
expression_or_secretion [2]: decreases

PD-L1: 231-MGAT3-EVs (MGAT3 overexpression)
expression_or_secretion [3]: decreases

PD-L1: MCF7-shM3 (MGAT3 shRNA)
expression_or_secretion [4]: increases
